Test results from patent EP4803151A2 (Lepu Biopharma Co., Ltd., dated 2026).

T1: human DLL3 endogenously expressed on SCLC tumor cell lines SHP77 and NCI-H82 (human, UniProt Q9NYJ7 27-618)
T1 construct: whole, on cells; also called human DLL3 expressed on tumor cells
T1 sequence (looked up): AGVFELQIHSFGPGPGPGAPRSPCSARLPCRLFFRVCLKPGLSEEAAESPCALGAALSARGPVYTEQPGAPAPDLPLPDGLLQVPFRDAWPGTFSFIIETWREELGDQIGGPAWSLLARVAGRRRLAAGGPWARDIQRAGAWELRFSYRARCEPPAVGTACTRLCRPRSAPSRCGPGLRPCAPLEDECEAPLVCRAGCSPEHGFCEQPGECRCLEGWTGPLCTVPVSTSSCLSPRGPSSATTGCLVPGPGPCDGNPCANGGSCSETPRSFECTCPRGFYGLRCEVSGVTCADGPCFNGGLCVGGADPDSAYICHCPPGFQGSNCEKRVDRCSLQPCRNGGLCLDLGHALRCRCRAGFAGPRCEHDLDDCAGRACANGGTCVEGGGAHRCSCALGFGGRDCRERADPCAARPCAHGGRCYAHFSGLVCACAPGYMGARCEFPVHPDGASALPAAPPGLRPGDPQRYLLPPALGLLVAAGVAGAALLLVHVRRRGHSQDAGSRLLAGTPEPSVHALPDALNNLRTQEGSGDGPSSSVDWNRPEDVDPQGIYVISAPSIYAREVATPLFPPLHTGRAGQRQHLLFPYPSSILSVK

T2: ECD of human DLL3 over-expressed on HEK293 cells (human, UniProt Q9NYJ7 27-492)
T2 construct: extracellular domain; also called HEK293-hDLL3; human DLL3 expressed on HEK293 cells
T2 sequence (looked up): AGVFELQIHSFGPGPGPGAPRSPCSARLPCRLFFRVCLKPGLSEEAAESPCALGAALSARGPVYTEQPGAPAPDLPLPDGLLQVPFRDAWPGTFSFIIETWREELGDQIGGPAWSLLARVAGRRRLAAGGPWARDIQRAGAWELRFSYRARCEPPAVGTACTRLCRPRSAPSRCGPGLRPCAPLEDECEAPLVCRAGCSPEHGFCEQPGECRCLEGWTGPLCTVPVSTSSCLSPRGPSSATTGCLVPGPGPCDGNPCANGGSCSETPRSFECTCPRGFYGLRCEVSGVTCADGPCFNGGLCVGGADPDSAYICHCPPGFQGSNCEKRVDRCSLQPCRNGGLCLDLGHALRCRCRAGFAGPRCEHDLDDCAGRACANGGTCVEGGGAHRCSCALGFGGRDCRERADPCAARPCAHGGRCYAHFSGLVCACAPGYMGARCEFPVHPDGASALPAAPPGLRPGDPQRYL

T3: ECD of human DLL3 protein fused with his tag (Acro Bio, Cat. No. DL3-H52H4) (human, UniProt Q9NYJ7 27-492)
T3 construct: range 27-492; Bought protein; also called hDLL3-his; human DLL3-his protein; not shown: his tag
T3 sequence (looked up): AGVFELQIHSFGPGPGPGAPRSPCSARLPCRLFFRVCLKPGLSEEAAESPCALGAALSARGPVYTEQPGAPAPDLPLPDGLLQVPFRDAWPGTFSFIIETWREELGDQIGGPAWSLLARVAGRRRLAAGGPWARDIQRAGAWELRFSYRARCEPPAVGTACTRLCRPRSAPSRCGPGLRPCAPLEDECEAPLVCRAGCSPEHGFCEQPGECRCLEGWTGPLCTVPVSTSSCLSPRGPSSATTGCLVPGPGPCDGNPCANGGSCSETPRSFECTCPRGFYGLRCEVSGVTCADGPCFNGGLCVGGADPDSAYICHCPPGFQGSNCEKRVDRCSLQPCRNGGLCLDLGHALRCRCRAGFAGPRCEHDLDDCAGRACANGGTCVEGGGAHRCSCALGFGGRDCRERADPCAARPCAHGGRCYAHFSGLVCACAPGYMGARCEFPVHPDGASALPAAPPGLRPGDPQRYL


What was measured:
[1] = biological target: T1, human DLL3 endogenously expressed on …; assay: flow cytometry on SHP77 cells
[2] = biological target: T2, ECD of human DLL3 over-expressed on …; assay: flow cytometry on HEK293-hDLL3 cells
[3] = biological target: T3, ECD of human DLL3 protein fused with …; assay: ELISA, hDLL3-his coated

Binder	binding result [1]	binding result [2]	binding result [3]
310P3C5-z15p10 PTM removed humanized antibody (antibody, V domains shown, variable regions fused to the constant region of human IgG1) VH: QVQLVQSGAEVKKPGASVKVSCKASGYTFTDFYMNWVKQAPGQGLEWIGDANPNAGGTTHNPRFKGRATLTVDKSASTAYMELRSLRSEDTAVYYCARGGLPGDFDYWGQGTTVTVSS VL: DIQMTQSPSSLSASVGDRVTITCKASEDIYNRLAWYQQKPGKAPKLLISGVTSLETGVPSRFSGSGSGTDFTFTISSLQPEDIATYYCQQYWSFPWTFGGGTKVEIK	binds	binds	
310P3C5-z15p12 PTM removed humanized antibody (antibody, V domains shown, variable regions fused to the constant region of human IgG1) VH: QVQLVQSGAEVKKPGASVKVSCKASGYTFTDFYMNWVKQAPGQGLEWIGDANPNFGGTTHNPRFKGRATLTVDKSASTAYMELRSLRSEDTAVYYCARGGLPGDFDYWGQGTTVTVSS VL: DIQMTQSPSSLSASVGDRVTITCKASEDIYNRLAWYQQKPGKAPKLLISGVTSLETGVPSRFSGSGSGTDFTFTISSLQPEDIATYYCQQYWSFPWTFGGGTKVEIK	binds	binds	
310P3C5-z15p13 PTM removed humanized antibody (antibody, V domains shown, variable regions fused to the constant region of human IgG1) VH: QVQLVQSGAEVKKPGASVKVSCKASGYTFTDFYMNWVKQAPGQGLEWIGDANPNHGGTTHNPRFKGRATLTVDKSASTAYMELRSLRSEDTAVYYCARGGLPGDFDYWGQGTTVTVSS VL: DIQMTQSPSSLSASVGDRVTITCKASEDIYNRLAWYQQKPGKAPKLLISGVTSLETGVPSRFSGSGSGTDFTFTISSLQPEDIATYYCQQYWSFPWTFGGGTKVEIK	binds	binds	
310P3C5-z15p18 PTM removed humanized antibody (antibody, V domains shown, variable regions fused to the constant region of human IgG1) VH: QVQLVQSGAEVKKPGASVKVSCKASGYTFTDFYMNWVKQAPGQGLEWIGDANPNRGGTTHNPRFKGRATLTVDKSASTAYMELRSLRSEDTAVYYCARGGLPGDFDYWGQGTTVTVSS VL: DIQMTQSPSSLSASVGDRVTITCKASEDIYNRLAWYQQKPGKAPKLLISGVTSLETGVPSRFSGSGSGTDFTFTISSLQPEDIATYYCQQYWSFPWTFGGGTKVEIK	binds	binds	
310P3C5-z15p19 PTM removed humanized antibody (antibody, V domains shown, variable regions fused to the constant region of human IgG1) VH: QVQLVQSGAEVKKPGASVKVSCKASGYTFTDFYMNWVKQAPGQGLEWIGDANPNVGGTTHNPRFKGRATLTVDKSASTAYMELRSLRSEDTAVYYCARGGLPGDFDYWGQGTTVTVSS VL: DIQMTQSPSSLSASVGDRVTITCKASEDIYNRLAWYQQKPGKAPKLLISGVTSLETGVPSRFSGSGSGTDFTFTISSLQPEDIATYYCQQYWSFPWTFGGGTKVEIK	binds	binds	
310P3C5-z15p20 PTM removed humanized antibody (antibody, V domains shown, variable regions fused to the constant region of human IgG1) VH: QVQLVQSGAEVKKPGASVKVSCKASGYTFTDFYMNWVKQAPGQGLEWIGDANPNWGGTTHNPRFKGRATLTVDKSASTAYMELRSLRSEDTAVYYCARGGLPGDFDYWGQGTTVTVSS VL: DIQMTQSPSSLSASVGDRVTITCKASEDIYNRLAWYQQKPGKAPKLLISGVTSLETGVPSRFSGSGSGTDFTFTISSLQPEDIATYYCQQYWSFPWTFGGGTKVEIK	binds	binds	
310P3C5-z15p21 PTM removed humanized antibody (antibody, V domains shown, variable regions fused to the constant region of human IgG1) VH: QVQLVQSGAEVKKPGASVKVSCKASGYTFTDFYMNWVKQAPGQGLEWIGDANPNYGGTTHNPRFKGRATLTVDKSASTAYMELRSLRSEDTAVYYCARGGLPGDFDYWGQGTTVTVSS VL: DIQMTQSPSSLSASVGDRVTITCKASEDIYNRLAWYQQKPGKAPKLLISGVTSLETGVPSRFSGSGSGTDFTFTISSLQPEDIATYYCQQYWSFPWTFGGGTKVEIK	binds	binds	
310P3C5-z7 humanized antibody (antibody, human IgG1, kappa, V domains shown, HU-VH1-3 with HU-VL1-2; human IgG1) VH: QVQLVQSGAEVKKPGASVKVSCKASGYTFTDFYMNWVRQAPGQGLEWIGDANPNNGGTTHNPRFKGRATLTVDTSTSTAYMELRSLRSDDTAVYYCARGGLPGDFDYWGQGTTVTVSS VL: DIQMTQSPSSVSASVGDRVTITCKASEDIYNRLAWYQQKPGKAPKLLISGVTSLETGVPSRFSGSGSGTDFTLTISSLQPEDFATYYCQQYWSFPWTFGGGTKVEIKR			binds
310P3C5-z1 humanized antibody (antibody, human IgG1, kappa, V domains shown, HU-VH1-1 with HU-VL1-1; human IgG1) VH: QVQLVQSGAEVKKPGASVKVSCKASGYTFTDFYMNWVRQAPGQGLEWMGDANPNNGGTTHNPRFKGRVTMTTDTSTSTAYMELRSLRSDDTAVYYCARGGLPGDFDYWGQGTTVTVSS VL: DIQMTQSPSSVSASVGDRVTITCKASEDIYNRLAWYQQKPGKAPKLLIYGVTSLETGVPSRFSGSGSGTDFTLTISSLQPEDFATYYCQQYWSFPWTFGGGTKVEIKR			binds
310P3C5-z2 humanized antibody (antibody, human IgG1, kappa, V domains shown, HU-VH1-2 with HU-VL1-1; human IgG1) VH: QVQLVQSGAEVKKPGASVKVSCKASGYTFTDFYMNWVRQAPGQGLEWIGDANPNNGGTTHNPRFKGRATMTTDTSTSTAYMELRSLRSDDTAVYYCARGGLPGDFDYWGQGTTVTVSS VL: DIQMTQSPSSVSASVGDRVTITCKASEDIYNRLAWYQQKPGKAPKLLIYGVTSLETGVPSRFSGSGSGTDFTLTISSLQPEDFATYYCQQYWSFPWTFGGGTKVEIKR			binds
310P3C5-z3 humanized antibody (antibody, human IgG1, kappa, V domains shown, HU-VH1-3 with HU-VL1-1; human IgG1) VH: QVQLVQSGAEVKKPGASVKVSCKASGYTFTDFYMNWVRQAPGQGLEWIGDANPNNGGTTHNPRFKGRATLTVDTSTSTAYMELRSLRSDDTAVYYCARGGLPGDFDYWGQGTTVTVSS VL: DIQMTQSPSSVSASVGDRVTITCKASEDIYNRLAWYQQKPGKAPKLLIYGVTSLETGVPSRFSGSGSGTDFTLTISSLQPEDFATYYCQQYWSFPWTFGGGTKVEIKR			binds
310P3C5-z5 humanized antibody (antibody, human IgG1, kappa, V domains shown, HU-VH1-1 with HU-VL1-2; human IgG1) VH: QVQLVQSGAEVKKPGASVKVSCKASGYTFTDFYMNWVRQAPGQGLEWMGDANPNNGGTTHNPRFKGRVTMTTDTSTSTAYMELRSLRSDDTAVYYCARGGLPGDFDYWGQGTTVTVSS VL: DIQMTQSPSSVSASVGDRVTITCKASEDIYNRLAWYQQKPGKAPKLLISGVTSLETGVPSRFSGSGSGTDFTLTISSLQPEDFATYYCQQYWSFPWTFGGGTKVEIKR			binds
310P3C5-z6 humanized antibody (antibody, human IgG1, kappa, V domains shown, HU-VH1-2 with HU-VL1-2; human IgG1) VH: QVQLVQSGAEVKKPGASVKVSCKASGYTFTDFYMNWVRQAPGQGLEWIGDANPNNGGTTHNPRFKGRATMTTDTSTSTAYMELRSLRSDDTAVYYCARGGLPGDFDYWGQGTTVTVSS VL: DIQMTQSPSSVSASVGDRVTITCKASEDIYNRLAWYQQKPGKAPKLLISGVTSLETGVPSRFSGSGSGTDFTLTISSLQPEDFATYYCQQYWSFPWTFGGGTKVEIKR			binds
310P3C5-z9 humanized antibody (antibody, human IgG1, kappa, V domains shown, HU-VH1-1 with HU-VL1-3; human IgG1) VH: QVQLVQSGAEVKKPGASVKVSCKASGYTFTDFYMNWVRQAPGQGLEWMGDANPNNGGTTHNPRFKGRVTMTTDTSTSTAYMELRSLRSDDTAVYYCARGGLPGDFDYWGQGTTVTVSS VL: DIQMTQSPSSVSASVGDRVTITCKASEDIYNRLAWYQQKPGKAPKLLISGVTSLETGVPSRFSGSGSGKDFTLTISSLQPEDFATYYCQQYWSFPWTFGGGTKVEIKR			binds
310P3C5-z10 humanized antibody (antibody, human IgG1, kappa, V domains shown, HU-VH1-2 with HU-VL1-3; human IgG1) VH: QVQLVQSGAEVKKPGASVKVSCKASGYTFTDFYMNWVRQAPGQGLEWIGDANPNNGGTTHNPRFKGRATMTTDTSTSTAYMELRSLRSDDTAVYYCARGGLPGDFDYWGQGTTVTVSS VL: DIQMTQSPSSVSASVGDRVTITCKASEDIYNRLAWYQQKPGKAPKLLISGVTSLETGVPSRFSGSGSGKDFTLTISSLQPEDFATYYCQQYWSFPWTFGGGTKVEIKR			binds
310P3C5-z11 humanized antibody (antibody, human IgG1, kappa, V domains shown, HU-VH1-3 with HU-VL1-3; human IgG1) VH: QVQLVQSGAEVKKPGASVKVSCKASGYTFTDFYMNWVRQAPGQGLEWIGDANPNNGGTTHNPRFKGRATLTVDTSTSTAYMELRSLRSDDTAVYYCARGGLPGDFDYWGQGTTVTVSS VL: DIQMTQSPSSVSASVGDRVTITCKASEDIYNRLAWYQQKPGKAPKLLISGVTSLETGVPSRFSGSGSGKDFTLTISSLQPEDFATYYCQQYWSFPWTFGGGTKVEIKR			binds
310P3C5-z13 humanized antibody (antibody, human IgG1, kappa, V domains shown, HU-VH1-1 with HU-VL2; human IgG1) VH: QVQLVQSGAEVKKPGASVKVSCKASGYTFTDFYMNWVRQAPGQGLEWMGDANPNNGGTTHNPRFKGRVTMTTDTSTSTAYMELRSLRSDDTAVYYCARGGLPGDFDYWGQGTTVTVSS VL: DIQMTQSPSSLSASVGDRVTITCKASEDIYNRLAWYQQKPGKAPKLLISGVTSLETGVPSRFSGSGSGTDFTFTISSLQPEDIATYYCQQYWSFPWTFGGGTKVEIKR			binds
